{"source": "patent US20250034273A1", "about": "(ARBELE, published 2025)", "binders": {"B1": {"name": "ARB203-h3G8 v1 (bispecific antibody)", "heavy": "EVQLVESGGGLVQPGGSLRLSCAASGFTFSTYTMSWVRQTPAKGLVWVSTINSDGYNIYYSDSMKGRFTISRDNAKYTLYLQMNSLRAEDTAMYYCARCSYYSYDYFDYWGQGTLVTVSSASTKGPSVFPLAPSSKSTSGGTAALGCLVKDYFPEPVTVSWNSGALTSGVHTFPAVLQSSGLYSLSSVVTVPSSSLGTQTYICNVNHKPSNTKVDKRVEPKSCDKTHTCPPCPAPELLGGPSVFLFPPKPKDTLMISRTPEVTCVVVDVSQEDPEVQFNWYVDGVEVHNAKTKPREEQFNSTYRVVSVLTVLHQDWLNGKEYKCKVSNKGLPSSIEKTISKAKGQPREPQVYTLPPSQEEMTKNQVSLTCLVKGFYPSDIAVEWESNGQPENNYKTTPPVLDSDGSFFLYSRLTVDKSRWQEGNVFSCSVMHEALHNHYTQKSLSLSLGKPAGGGGSQVQLVQSGAEVKKPGASVKVSCKASGYTFTSYYMHWVRQAPGQGLEWMGWIYPENVNTNYAQKFQGRVTMTRDTSISTAYMELSRLRSDDTAVYYCARDSYGSYFFDYWGQGTLVTVSSGGGGSGGGGSGGGGSDIVMTQSPDSLAVSLGERATINCKSSQSLLNSRTRKNYLAWYQQKPGQPPKLLIYWASTRESGVPDRFSGSGSGTDFTLTISSLQAEDVAVYYCTQSFILRTFGQGTKVEIK", "light": "DIQMTQSPSSLSASVGDRVTITCRASENIDNYLAWYQQKQGKVPKLLIYAATNLADGMPSRFSGSGSGTDFTLTISSLQPEDVATYYCQHYYSNQLTFGQGTKLEIKRTVAAPSVFIFPPSDEQLKSGTASVVCLLNNFYPREAKVQWKVDNALQSGNSQESVTEQDSKDSTYSLSSTLTLSKADYEKHKVYACEVTHQGLSSPVTKSFNRGEC", "notes": "also called h8B5-h3G8 V1; h8B5-h3G8v1"}, "B2": {"name": "h8B5-h3G8v2, bispecific anti-Trop2 (h8B5) / anti-CD3 (h3G8 scFv V2, VL-VH with 3xGS linker) (bispecific antibody, human IgG1, kappa)", "heavy": "EVQLVESGGGLVQPGGSLRLSCAASGFTFSTYTMSWVRQTPAKGLVWVSTINSDGYNIYYSDSMKGRFTISRDNAKYTLYLQMNSLRAEDTAMYYCARCSYYSYDYFDYWGQGTLVTVSSASTKGPSVFPLAPSSKSTSGGTAALGCLVKDYFPEPVTVSWNSGALTSGVHTFPAVLQSSGLYSLSSVVTVPSSSLGTQTYICNVNHKPSNTKVDKRVEPKSCDKTHTCPPCPAPELLGGPSVFLFPPKPKDTLMISRTPEVTCVVVDVSQEDPEVQFNWYVDGVEVHNAKTKPREEQFNSTYRVVSVLTVLHQDWLNGKEYKCKVSNKGLPSSIEKTISKAKGQPREPQVYTLPPSQEEMTKNQVSLTCLVKGFYPSDIAVEWESNGQPENNYKTTPPVLDSDGSFFLYSRLTVDKSRWQEGNVFSCSVMHEALHNHYTQKSLSLSLGKPAGGGGSDIVMTQSPDSLAVSLGERATINCKSSQSLLNSRTRKNYLAWYQQKPGQPPKLLIYWASTRESGVPDRFSGSGSGTDFTLTISSLQAEDVAVYYCTQSFILRTFGQGTKVEIKGGGGSGGGGSGGGGSQVQLVQSGAEVKKPGASVKVSCKASGYTFTSYYMHWVRQAPGQGLEWMGWIYPENVNTNYAQKFQGRVTMTRDTSISTAYMELSRLRSDDTAVYYCARDSYGSYFFDYWGQGTLVTVSS", "light": "B1 light", "notes": "IgG4 Fc with IgG1 hinge, scFv at the heavy chain C-terminus"}, "B3": {"name": "ARB203, bispecific antibody of anti-Trop2 (h8B5) and anti-CD3 (UCHT1) (bispecific antibody, human IgG1, kappa)", "heavy": "EVQLVESGGGLVQPGGSLRLSCAASGFTFSTYTMSWVRQTPAKGLVWVSTINSDGYNIYYSDSMKGRFTISRDNAKYTLYLQMNSLRAEDTAMYYCARCSYYSYDYFDYWGQGTLVTVSSASTKGPSVFPLAPSSKSTSGGTAALGCLVKDYFPEPVTVSWNSGALTSGVHTFPAVLQSSGLYSLSSVVTVPSSSLGTQTYICNVNHKPSNTKVDKRVEPKSCDKTHTCPPCPAPELLGGPSVFLFPPKPKDTLMISRTPEVTCVVVDVSQEDPEVQFNWYVDGVEVHNAKTKPREEQFNSTYRVVSVLTVLHQDWLNGKEYKCKVSNKGLPSSIEKTISKAKGQPREPQVYTLPPSQEEMTKNQVSLTCLVKGFYPSDIAVEWESNGQPENNYKTTPPVLDSDGSFFLYSRLTVDKSRWQEGNVFSCSVMHEALHNHYTQKSLSLSLGKPAGGGGSEVQLVESGGGLVQPGGSLRLSCAASGYSFTGYTMNWVRQAPGKGLEWVALINPYKGVSTYNQKFKDRFTISVDKSKNTAYLQMNSLRAEDTAVYYCARSGYYGDSDWYFDVWGQGTLVTVSSGGGGSGGGGSGGGGSDIQMTQSPSSLSASVGDRVTITCRASQDIRNYLNWYQQKPGKAPKLLIYYTSRLESGVPSRFSGSGSGTDYTLTISSLQPEDFATYYCQQGNTLPWTFGQGTKVEIK", "light": "B1 light", "notes": "IgG4 Fc with IgG1 hinge; Bivalent Fab to Trop2 and bivalent scFv to CD3 at the heavy chain C-terminus"}, "B4": {"name": "ARB204, CDH17-PD1 bispecific antibody (anti-CDH17 10C12 Fab, anti-PD1 1C8 scFv) (bispecific antibody, human IgG1, kappa)", "heavy": "EVQLVESGGGLVQPGGSLRLSCAASGFTFSSYAMSWVRQTPGKGLEWVAVIDSNGGSTYYPDTVKDRFTISRDNSKNTLYLQMNSLRAEDTAVYYCSSYTNLGAYWGQGTLVTVSAASTKGPSVFPLAPSSKSTSGGTAALGCLVKDYFPEPVTVSWNSGALTSGVHTFPAVLQSSGLYSLSSVVTVPSSSLGTQTYICNVNHKPSNTKVDKRVEPKSCDKTHTCPPCPAPELLGGPSVFLFPPKPKDTLMISRTPEVTCVVVDVSQEDPEVQFNWYVDGVEVHNAKTKPREEQFNSTYRVVSVLTVLHQDWLNGKEYKCKVSNKGLPSSIEKTISKAKGQPREPQVYTLPPSQEEMTKNQVSLTCLVKGFYPSDIAVEWESNGQPENNYKTTPPVLDSDGSFFLYSRLTVDKSRWQEGNVFSCSVMHEALHNHYTQKSLSLSLGKPAGGGGSEVQLVESGGGLVQPGGSLRLSCAASGFTFSRSTMSWVRQAPGKGLEWVATISGGGLNTYFPDSVKGRFTISRDNSKNTLYLQMNSLRAEDTAVYYCTRNSNSYYFALDYWGQGTLVTVSSGGGGSGGGGSGGGGSEIVLTQSPATLSLSPGERATLSCRASESVDNSGVSFMNWYQQKPGQAPRLLIYIASNQVSGIPARFSGSGSGTDFTLTISSLEPEDFAVYYCQQIKEVPWTFGGGTKVEIK", "light": "DIQMTQSPSSLSASVGDRVTITCRASQDISGYLNWLQQKPGGAIKRLIYTTSTLDSGVPKRFSGSGSGTDFTLTISSLQSEDFATYYCLQYASSPFTFGGGTKVEIKRTVAAPSVFIFPPSDEQLKSGTASVVCLLNNFYPREAKVQWKVDNALQSGNSQESVTEQDSKDSTYSLSSTLTLSKADYEKHKVYACEVTHQGLSSPVTKSFNRGEC", "notes": "IgG4 Fc with IgG1 hinge, bivalent to each target"}}, "key": {"human Trop2 [1]": {"target": "T1, human Trop2 (human, UniProt P09758 27-274, limits assumed)", "T1 sequence (looked up)": "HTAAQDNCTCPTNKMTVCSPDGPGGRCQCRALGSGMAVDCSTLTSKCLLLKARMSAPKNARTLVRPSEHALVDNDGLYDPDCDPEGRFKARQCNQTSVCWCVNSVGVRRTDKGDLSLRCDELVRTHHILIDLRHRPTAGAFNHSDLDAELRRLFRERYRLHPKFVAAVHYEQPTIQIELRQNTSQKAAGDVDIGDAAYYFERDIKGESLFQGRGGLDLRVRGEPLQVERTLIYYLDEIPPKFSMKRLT", "test": "absorbance assay (Net absorbance, Abs 450) on 'Trop2-hFc'; one unprinted antibody concentration"}, "monkey CD3": {"target": "T2, monkey CD3 (monkey)", "T2 chain": "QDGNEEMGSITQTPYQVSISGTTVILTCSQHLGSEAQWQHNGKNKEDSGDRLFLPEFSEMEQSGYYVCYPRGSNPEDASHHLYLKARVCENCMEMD", "test": "Octet sensorgrams (nm against time), panel 'Cynomolgus CD3', association to about 900 s, dissociation to 1800 s"}, "human CD3 [2]": {"target": "human CD3 (human)", "sequence (chain, as listed by the source)": "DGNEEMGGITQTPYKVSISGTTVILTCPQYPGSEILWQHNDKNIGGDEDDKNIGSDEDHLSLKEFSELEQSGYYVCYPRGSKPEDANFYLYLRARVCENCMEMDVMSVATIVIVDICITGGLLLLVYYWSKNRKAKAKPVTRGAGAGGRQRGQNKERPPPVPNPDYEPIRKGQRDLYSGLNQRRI", "test": "Octet sensorgrams (nm against time), panel 'Human CD3', association to about 900 s, dissociation to 1800 s"}, "human CD3 [3]": {"target": "human CD3 (human)", "test": "receptor occupancy (Percentage) on PBMC against ARB203 (nM); the legend speaks of occupancy on T cells, the CD3 arm of ARB203"}, "human Trop2 [4]": {"target": "T1, human Trop2", "test": "Octet (BLI)"}, "[5]": {"target": "T3, Trop2 on cells (Trop2-positive SW480 cells; Trop2-expressing HEK293 cells) (UniProt P09758 27-323, limits assumed)", "T3 construct": "whole, on cells", "T3 sequence (looked up)": "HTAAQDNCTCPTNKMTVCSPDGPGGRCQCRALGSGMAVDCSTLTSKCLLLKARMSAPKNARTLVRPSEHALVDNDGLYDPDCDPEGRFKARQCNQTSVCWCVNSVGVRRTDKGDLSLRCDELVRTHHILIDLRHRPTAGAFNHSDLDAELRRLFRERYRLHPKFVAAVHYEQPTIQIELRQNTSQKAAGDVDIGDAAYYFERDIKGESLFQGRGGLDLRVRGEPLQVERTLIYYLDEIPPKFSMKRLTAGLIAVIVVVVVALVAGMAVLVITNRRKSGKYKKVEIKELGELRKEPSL", "test": "receptor occupancy (Percentage) on DLD1/DLD1-2C7 cancer cells against ARB203 (nM); Trop2 arm of ARB203"}, "[6]": {"target": "T3, Trop2 on cells (Trop2-positive SW480 …)", "test": "receptor occupancy (%) on Trop2-positive SW480 cells against ARB203 (nM)"}, "[7]": {"target": "T4, PD1 expressed on HEK293F cells (UniProt Q15116 25-288, limits assumed)", "T4 construct": "whole, on cells; also called HEK293F expressing PD1; HKE293F expressing PD1", "T4 sequence (Q15116 25-288 limits assumed)": "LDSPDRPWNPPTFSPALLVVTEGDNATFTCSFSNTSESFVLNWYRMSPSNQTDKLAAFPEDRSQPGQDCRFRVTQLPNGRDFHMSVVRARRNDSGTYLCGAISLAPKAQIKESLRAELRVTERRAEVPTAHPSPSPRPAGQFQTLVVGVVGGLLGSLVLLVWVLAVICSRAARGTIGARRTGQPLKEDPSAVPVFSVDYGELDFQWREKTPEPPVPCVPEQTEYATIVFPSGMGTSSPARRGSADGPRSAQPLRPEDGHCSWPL", "test": "flow cytometry binding, receptor occupancy (0 to 1) on HEK293F cells expressing PD1 against Antibody (nM)"}}, "data": [{"binder": "B1", "values": [{"measurement": "binding result", "setting": "human Trop2 [1]", "value": "binds"}]}, {"binder": "B2", "values": [{"measurement": "Kd", "setting": "monkey CD3", "value": 802, "unit": "pM"}, {"measurement": "Kd", "setting": "human CD3 [2]", "value": 3700, "unit": "pM"}]}, {"binder": "B3", "values": [{"measurement": "EC50", "setting": "human CD3 [3]", "value": 20900, "unit": "pM"}, {"measurement": "Kd", "setting": "human Trop2 [4]", "value": "≤ 1", "unit": "pM"}, {"measurement": "EC50 (read off the curve)", "setting": "[5]", "value": "~400", "unit": "pM"}, {"measurement": "EC50", "setting": "[6]", "value": 155, "unit": "pM"}]}, {"binder": "B4", "values": [{"measurement": "EC50", "setting": "[7]", "value": 217, "unit": "pM"}]}]}
